Reference: the supplement of paper PMC10126150
± gives the standard deviation of the averaged measurements.

Test system: ATP
Test: switch fluorescence ratio, 500 uM ATP over buffer (Cy3 cluster intensity, sum of 5 cycles each) (fold (ratio)); higher = stronger signal-on switching upon ATP binding; sequences stand for … in TCGTCGGCAGCGTCAGATGTGTATAAGAGACAGTTTTTTTTTTTTTTTTTTTTTTTTT…TC
Conditions: aptamer strand: ATP DNA aptamer (quencher-CACCTGGGGGAGTATTGCGGAGGAAGG + anchor), 100 nM annealed; ATP concentration: 500 uM
Summary of the method: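 Between each of five buffer/ATP cycles, the flow-cell was stripped with NaOH and re-annealed. Each cycle imaged Cy3-labelled switching-strand clusters, annealed to 100 nM quencher-labelled ATP aptamer on a modified Illumina MiSeq flow-cell, first in selection buffer and then after 15 min with 500 uM ATP at 22 °C. The fluorescence ratio is summed target-cycle over summed buffer-cycle Cy3 intensity per cluster, averaged per switch-domain sequence, with clusters outside 100-1000 RFU excluded.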
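Note: ATP exposure 15 min at 22 °C before imaging.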

| Sequence | switch fluorescence ratio |
| --- | --- |
| TAAGTTCCTG | 1 ± 0.026 |
| AAGGGGCGTG | 0.997 ± 0.03 |
| GCCTGATGCG | 0.997 ± 0.055 |
| AGTCACGGGT | 1.03 ± 0.016 |
| CGGTCTCCGG | 1.03 ± 0.012 |
| TTTAATAAGT | 0.9981 ± 0.0036 |
| TCGGGGTTCA | 1.04 ± 0.03 |
| ATAATATAAC | 1 ± 0.018 |
| GGGGAGCGAG | 1.02 ± 0.046 |
| GGAGTTCCAG | 0.978 ± 0.048 |
| TTCAGAGCGT | 0.994 ± 0.018 |
| TCTCGTATAT | 1.05 ± 0.045 |
| GGGGATTTAG | 0.971 ± 0.027 |
| TTTAGATGGG | 0.989 ± 0.029 |
| ATAAGGATAG | 1 ± 0.011 |
| TTTGAAAAGC | 0.986 ± 0.018 |
| GTGATTGGGA | 0.963 ± 0.058 |
| TGCGTTCGTC | 0.993 ± 0.015 |
| AGGGGTGCCA | 0.9529 ± 0.0048 |
| CGTCCCTAGC | 1.61 ± 0.06 |
| ATGGTGGGT | 0.978 ± 0.033 |
| TATCAGCATG | 1.01 ± 0.033 |
| TACTAGGCG | 1.014 ± 0.0083 |

| Sequence | switch fluorescence ratio |
| --- | --- |
| ATAAACGGCT | 1.01 ± 0.021 |
| GTGTAAGGG | 1.03 ± 0.031 |
| TAATAACATG | 0.9691 ± 0.0038 |
| CGGTTGGCGT | 1.04 ± 0.088 |
| TTTGAGTGTA | 0.969 ± 0.05 |
| TAAAAAACCT | 1.57 ± 0.39 |
| TGATTCTTAT | 0.97 ± 0.014 |
| TGGGGGAGGT | 1 ± 0.027 |
| TATTACAAT | 1.03 ± 0.052 |
| TGGTCGTTCT | 1.03 ± 0.033 |
| AATCAGGAAG | 1.02 ± 0.035 |
| CGCTGTCAGC | 1.002 ± 0.0037 |
| AGGATCGATG | 1 ± 0.05 |
| TTAATCAATG | 0.998 ± 0.029 |
| TTGGTACTGC | 1.03 ± 0.027 |
| TGAGGGGAGG | 1.13 ± 0.15 |
| CATCTAAGGG | 0.983 ± 0.042 |
| ACGGGTTTGT | 0.9774 ± 0.0036 |
| GAGGTCAGGT | 1.01 ± 0.021 |
| AGTGCTAGGG | 1 ± 0.024 |
| CTTAAAAGTA | 0.972 ± 0.018 |
| AGGTTAGTCG | 1.01 ± 0.032 |
| CTGATAGGAT | 1.22 ± 0.37 |

| Sequence | switch fluorescence ratio |
| --- | --- |
| TCGCGGCAGT | 1.04 ± 0.015 |
| TGCTGGGGTG | 1.04 ± 0.1 |
| AACCTCTATT | 1.03 ± 0.015 |
| ATTCAAGTT | 0.999 ± 0.034 |
| CCTATGCGGT | 2.6 ± 0.067 |
| GGGTGTACTG | 1 ± 0.0089 |
| TCCAGGGCG | 1.03 ± 0.029 |
| GTTTGGGGCT | 0.989 ± 0.019 |
| CGTGGTATTT | 0.982 ± 0.016 |
| GTAAAAAGTG | 1.05 ± 0.17 |
| TATGACTTTG | 1.03 ± 0.071 |
| TGTGGGGAAA | 0.993 ± 0.03 |
| TATCTATGGG | 0.983 ± 0.047 |
| GATTGCAAGG | 1.02 ± 0.02 |
| GCGCGGGAAC | 1.46 ± 0.17 |
| TGTGGTTAGG | 0.993 ± 0.035 |
| GAATTATTTT | 1.12 ± 0.16 |
| TGTTTGGGAG | 1.01 ± 0.031 |
| ATGGCGGACG | 0.981 ± 0.05 |
| AGACGGGATT | 1.03 ± 0.021 |
| GTAATTTTGA | 1.01 ± 0.057 |
| CTCGGATTGG | 1 ± 0.015 |
| CGGGGGCTGT | 0.964 ± 0.0037 |

| Sequence | switch fluorescence ratio |
| --- | --- |
| ATGATCGATG | 0.979 ± 0.026 |
| CTCATAACAT | 1.01 ± 0.032 |
| ATCGTAATTT | 0.971 ± 0.062 |
| TGAAGTATAG | 0.9901 ± 0.005 |
| TGATACGCTA | 1.28 ± 0.23 |
| CTGAAGAATT | 1.03 ± 0.015 |
| TTCATTAATC | 0.97104 ± 0.00025 |
| TGCAGTCTGT | 0.988 ± 0.034 |
| CTATCTTTAG | 0.9891 ± 0.0043 |
| TCGGTCCAGG | 1.39 ± 0.14 |
| TCTCTAAAGA | 1.04 ± 0.016 |
| CGTTCTAATT | 1.01 ± 0.024 |
| TTTAGCT | 1.08 ± 0.097 |
| GTAAATTTGA | 1.03 ± 0.068 |
| GAGAAGAGGG | 1.04 ± 0.042 |
| GCCGTAGGGC | 0.985 ± 0.011 |
| GGTCTTGCGA | 0.9755 ± 0.0078 |
| GTTTTTTGAA | 0.9764 ± 0.0021 |
| GATCGGAGCG | 1.04 ± 0.047 |
| GGGATACTTT | 1.5 ± 0.73 |
| TGCTGGGCC | 1.02 ± 0.083 |
| TATTAGGGTG | 1.05 ± 0.098 |
| ATTGTTGGTT | 0.974 ± 0.019 |

| Sequence | switch fluorescence ratio |
| --- | --- |
| CGTTGGTGTC | 0.9921 ± 0.0085 |
| CGGATTGAAT | 1 ± 0.072 |
| GCACGCTAGG | 1.07 ± 0.041 |
| CGTCACAGTG | 1.04 ± 0.019 |
| AGGGAGTGGG | 0.968 ± 0.027 |
| GGAGGGGCGG | 1.01 ± 0.043 |
| AAGTTATCTG | 1.03 ± 0.027 |
| TCGAGTCATT | 0.9913 ± 0.005 |
| GATTTTTGGC | 0.9945 ± 0.0087 |
| TATCACTTCC | 1.96 ± 0.023 |
| CGGGTTCTAT | 0.977 ± 0.036 |
| TTCGTTTTAG | 0.996 ± 0.033 |
| GGTGTAGCTT | 1.014 ± 0.0083 |
| GAGTGGAGAC | 0.977 ± 0.053 |
| CGATGTCGTA | 1.03 ± 0.034 |
| TAGGGCACCC | 0.988 ± 0.058 |
| AGGAGGTTTG | 0.97 ± 0.015 |
| GGAAAACTGG | 1.01 ± 0.0017 |
| AGGACGCGAC | 1.548 ± 0.014 |
| GGTCCTGGTT | 0.9859 ± 0.0021 |
| GGGGCTAGTG | 0.977 ± 0.046 |
| ATGGCTGGCG | 1.07 ± 0.094 |
| ATTGGGAGTA | 0.988 ± 0.0099 |

| Sequence | switch fluorescence ratio |
| --- | --- |
| GACTTAGTTG | 0.987 ± 0.0068 |
| TTGGGAGGTT | 0.968 ± 0.025 |
| GTTGGACCAA | 1.021 ± 0.0027 |
| TTTTCCTTGT | 1.08 ± 0.13 |
| AAGGGAACGG | 0.971 ± 0.022 |
| GGGCGTTTGA | 1 ± 0.046 |
| AGGTTATTTT | 0.992 ± 0.04 |
| TTTTTTGGCG | 1.02 ± 0.15 |
| AGAGTGTTTT | 1 ± 0.028 |
| ACGAGTGGCG | 0.933 ± 0.021 |
| TCGATGAGGG | 1.02 ± 0.026 |
| TTCTAAAGGG | 0.984 ± 0.065 |
| TGATGTATCA | 1.01 ± 0.08 |
| GCGGTGGGGG | 1.03 ± 0.03 |
| TGTATGGGAG | 0.968 ± 0.02 |
| TACCGTAAAC | 1.8 ± 0.7 |
| TTTTTTGTAA | 1.01 ± 0.036 |
| GAATTATTGT | 0.959 ± 0.022 |
| TTTCATTTTG | 1.03 ± 0.017 |
| AATGGGGACA | 0.995 ± 0.051 |
| GCCACAGTCG | 1.01 ± 0.022 |
| CATTCATTGA | 0.998 ± 0.049 |
| AGGATAGATA | 1 ± 0.012 |

| Sequence | switch fluorescence ratio |
| --- | --- |
| TGTGACTAAG | 0.9791 ± 0.0015 |
| ACATGTCTGA | 0.9991 ± 0.0024 |
| GAAGGGGTTT | 0.999 ± 0.03 |
| TTCGGAATTG | 1.04 ± 0.033 |
| TGACGTTTGC | 1.03 ± 0.12 |
| AGGACAGATA | 1.01 ± 0.017 |
| GGGGCAGTCA | 0.9785 ± 0.0031 |
| TCAGGAATTT | 1.68 ± 1.2 |
| TGAAGTTAGC | 0.977 ± 0.011 |
| TTTGGGTTAT | 1.08 ± 0.21 |
| TCGGATTGTG | 1.01 ± 0.021 |
| GCGGGGTCGT | 0.977 ± 0.032 |
| GTTGGGGCGG | 1.01 ± 0.057 |
| TGGATGCGGG | 1.02 ± 0.032 |
| ACTATATTTT | 1.04 ± 0.0067 |
| CGGTGGTTGA | 1.01 ± 0.053 |
| TGGAATGGAT | 1.01 ± 0.043 |
| ATGGGATACT | 1.03 ± 0.033 |
| ATTGCAATGT | 1.036 ± 0.0055 |
